Among the data in paper PMC11339278 (2024) are ratio to parent, Kd and fold lower affinity than for SNX17ΔC values, retold here.

Test [1] deals with CCDC22 (endogenous). As to the kind of experiment: GFP-nanotrap pull-down, quantitative western blot. The conditions noted are these: HEK293T cells, transient co-transfection; n = 3; parent: est. 1.0; read off a plot. On the technique in general: A western blot detects proteins with antibodies after separation by electrophoresis.
For test [2], the target named is CCDC93 (endogenous). The test can be described thus: GFP-nanotrap pull-down, quantitative western blot. The note with it: HEK293T cells, transient co-transfection; n = 3; parent: est. 1.0; read off a plot.
Test [3] deals with VPS29 (endogenous). The test can be described thus: GFP-nanotrap pull-down, quantitative western blot. The conditions noted are these: HEK293T cells, transient co-transfection; n = 3; parent: est. 1.0; read off a plot.
Test [4] deals with T1, SNX17 full length (residue 1-470) with an intramolecular decaHis tag (human, UniProt Q15036 1-470).
T1 chain: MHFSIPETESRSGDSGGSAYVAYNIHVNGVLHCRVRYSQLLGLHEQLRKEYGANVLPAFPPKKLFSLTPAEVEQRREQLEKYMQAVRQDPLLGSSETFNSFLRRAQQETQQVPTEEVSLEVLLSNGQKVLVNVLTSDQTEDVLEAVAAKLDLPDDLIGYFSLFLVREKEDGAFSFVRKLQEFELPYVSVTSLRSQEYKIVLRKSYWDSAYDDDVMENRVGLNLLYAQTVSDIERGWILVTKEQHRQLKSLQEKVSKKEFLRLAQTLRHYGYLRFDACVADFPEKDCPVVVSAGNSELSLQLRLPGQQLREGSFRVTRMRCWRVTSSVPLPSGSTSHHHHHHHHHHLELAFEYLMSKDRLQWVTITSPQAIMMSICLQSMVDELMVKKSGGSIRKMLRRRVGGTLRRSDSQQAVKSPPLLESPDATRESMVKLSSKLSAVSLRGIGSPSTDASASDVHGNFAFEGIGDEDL
The test can be described thus: ITC. A general note: Isothermal titration calorimetry measures the heat released or taken up as one component is titrated into another.

Test [5] addresses T2, SNX17ΔC (residue 1-390) with an intramolecular decaHis tag (human, UniProt Q15036 1-390).
T2 chain: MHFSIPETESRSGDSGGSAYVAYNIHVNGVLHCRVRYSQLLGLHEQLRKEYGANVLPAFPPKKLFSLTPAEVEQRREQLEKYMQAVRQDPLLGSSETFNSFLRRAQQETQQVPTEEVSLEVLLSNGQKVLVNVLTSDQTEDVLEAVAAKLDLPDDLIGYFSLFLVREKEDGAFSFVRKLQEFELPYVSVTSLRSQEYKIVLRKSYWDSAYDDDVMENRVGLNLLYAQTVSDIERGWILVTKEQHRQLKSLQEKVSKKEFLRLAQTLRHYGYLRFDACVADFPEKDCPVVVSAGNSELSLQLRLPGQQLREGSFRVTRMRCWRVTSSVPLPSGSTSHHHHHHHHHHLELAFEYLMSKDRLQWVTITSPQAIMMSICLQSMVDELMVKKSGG
As to the kind of experiment: ITC.

The target of test [6] is SNX17 full length (residue 1-470) with an intramolecular decaHis tag (human) (UniProt Q15036). As to the kind of experiment: ITC; APP or LRP1 peptide at 250 μM injected into 20 μM SNX17 FL or SNX17ΔC; 13 x 3.22 μL; 10 °C; 500 mM NaCl, 100 mM Tris pH 8.0, 5% glycerol; single site binding model.
Test [7] has as its target SNX17ΔC (residue 1-390) with an intramolecular decaHis tag (human) (UniProt Q15036). Described as above.
For test [8], the target named is SNX17 full length (residue 1-470) with an intramolecular decaHis tag (human) (UniProt Q15036). As to the kind of experiment: ITC; Microcal PEAQ, 10 °C, 500 mM NaCl, 100 mM Tris pH 8.0, 5% glycerol; 250 µM APP or LRP1 peptide, or 2 mM SNX17 tail peptide, injected into 20 µM SNX17 FL or SNX17ΔC; single site binding model.
In test [9] the target is SNX17ΔC (residue 1-390) with an intramolecular decaHis tag (human) (UniProt Q15036). As to the kind of experiment: ITC; 2 mM SNX17 tail peptide injected into 20 μM SNX17 FL or SNX17ΔC; 13 x 3.22 μL; 10 °C; 500 mM NaCl, 100 mM Tris pH 8.0, 5% glycerol; single site binding model.

On to “VPS35L-GFP (from UniProt Q7Z3J2-1) W280A”, for which the ratio to parent in [1] came to 0.75; in [2], 0.73; in test [3] it was 0.62.

In the case of “VPS35L-GFP (from UniProt Q7Z3J2-1) R248A”, the ratio to parent came out at 1 in [1], 1.1 in test [2] and 1.1 in test [3].

For the molecule “VPS35L-GFP (from UniProt Q7Z3J2-1) K283E”, the ratio to parent in test [1] was 0.95; in test [2], 0.88; in test [3], 0.97.

As for VEIGNPTYKMYEGG [LRP1 cargo recognition peptide (4466-4479)], the Kd in [4] stood at 13.6 µM; in [5] it was 3.64 µM; in test [6], 14.3 µM; in test [7], 4.6 µM. Also, the fold lower affinity than for SNX17ΔC in test [8] is 2 fold.

SASDVHGNFAFEGIGDEDL [synthetic peptide of the SNX17 tail (452-470)]: the Kd in test [5] came to 116 µM; in test [9], 189 µM.

For NGYENPTYKFFEQM [APP cargo recognition peptide (755-768)], the Kd came to 14.8 µM in test [4], 4.74 µM in test [5], 16 µM in test [6] and 7.03 µM in test [7]. The fold lower affinity than for SNX17ΔC in [8] came out at 2 fold.
